Columns and labels:
[1] = target: Human PD-L1 expressed on cells (human, UniProt Q9NZQ7 19-290); assay: cell-based or functional assay
[2] = target: T1, Monomeric His-tagged human PD-L1 (Acro biosystems PD1-H5229) (human, UniProt Q9NZQ7 19-238); assay: off-rate on PD-L1, mock mAb^2; instrument not given
T1 construct: also called hPD-L1-his; PD-L1-his
T1 sequence (Q9NZQ7 19-238 limits assumed): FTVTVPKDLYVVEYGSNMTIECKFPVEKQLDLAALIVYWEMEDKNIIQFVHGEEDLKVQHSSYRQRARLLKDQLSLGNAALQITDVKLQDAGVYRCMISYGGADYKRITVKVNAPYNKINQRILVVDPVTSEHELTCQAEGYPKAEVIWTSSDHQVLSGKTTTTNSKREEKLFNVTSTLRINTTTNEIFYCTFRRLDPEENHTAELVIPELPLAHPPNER

Sequence of Human PD-L1 expressed on cells (Q9NZQ7 19-290 limits assumed): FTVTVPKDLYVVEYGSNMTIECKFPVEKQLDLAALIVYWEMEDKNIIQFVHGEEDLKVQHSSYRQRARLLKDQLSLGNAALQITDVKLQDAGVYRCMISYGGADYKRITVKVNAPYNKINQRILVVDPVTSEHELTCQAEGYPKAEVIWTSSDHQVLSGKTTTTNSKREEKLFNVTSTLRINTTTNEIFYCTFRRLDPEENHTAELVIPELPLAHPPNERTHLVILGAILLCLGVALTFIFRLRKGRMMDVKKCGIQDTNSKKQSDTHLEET

Row | Binder | DO11.10 EC50 [1] | koff [2]
1 | FS17-33-157AA/HELD1.3 (bispecific antibody) chain 1: QVQLQESGPGLVRPSQTLSLTCTVSGSTFSGYGVNWVRQPPGRGLEWIGMIWGDGNTDYNSALKSRVTMLVDTSKNQFSLRLSSVTAADTAVYYCARERDYRLDYWGQGSLVTVSSASTKGPSVFPLAPSSKSTSGGTAALGCLVKDYFPEPVTVSWNSGALTSGVHTFPAVLQSSGLYSLSSVVTVPSSSLGTQTYICNVNHKPSNTKVDKKVEPKSCDKTHTCPPCPAPEAAGGPSVFLFPPKPKDTLMISRTPEVTCVVVDVSHEDPEVKFNWYVDGVEVHNAKTKPREEQYNSTYRVVSVLTVLHQDWLNGKEYKCKVSNKALPAPIEKTISKAKGQPREPQVYTLPPSRDEEGYWVSLTCLVKGFYPSDIAVEWESNGEPQYWAKTTPPVLDSDGSFFLYSKLTVSNWRWQLDDFSCSVMHEALHNHYTQKSLSLSPGK chain 2: DIQMTQSPASLSASVGETVTITCRASGNIHNYLAWYQQKQGKSPQLLVYNAKTLADGVPSRFSGSGSGTQYSLKINSLQPEDFGSYYCQHFWSTPRTFGGGTKLEIKRTVAAPSVFIFPPSDEQLKSGTASVVCLLNNFYPREAKVQWKVDNALQSGNSQESVTEQDSKDSTYSLSSTLTLSKADYEKHKVYACEVTHQGLSSPVTKSFNRGEC | 0.481 nM | 0.000559 s⁻¹
2 | FS17-33-159AA/HELD1.3 (bispecific antibody) chain 1: QVQLQESGPGLVRPSQTLSLTCTVSGSTFSGYGVNWVRQPPGRGLEWIGMIWGDGNTDYNSALKSRVTMLVDTSKNQFSLRLSSVTAADTAVYYCARERDYRLDYWGQGSLVTVSSASTKGPSVFPLAPSSKSTSGGTAALGCLVKDYFPEPVTVSWNSGALTSGVHTFPAVLQSSGLYSLSSVVTVPSSSLGTQTYICNVNHKPSNTKVDKKVEPKSCDKTHTCPPCPAPEAAGGPSVFLFPPKPKDTLMISRTPEVTCVVVDVSHEDPEVKFNWYVDGVEVHNAKTKPREEQYNSTYRVVSVLTVLHQDWLNGKEYKCKVSNKALPAPIEKTISKAKGQPREPQVYTLPPSRDEHGYWVSLTCLVKGFYPSDIAVEWESNGEPQYWAKTTPPVLDSDGSFFLYSKLTVSNWRWQLDDFSCSVMHEALHNHYTQKSLSLSPGK chain 2: DIQMTQSPASLSASVGETVTITCRASGNIHNYLAWYQQKQGKSPQLLVYNAKTLADGVPSRFSGSGSGTQYSLKINSLQPEDFGSYYCQHFWSTPRTFGGGTKLEIKRTVAAPSVFIFPPSDEQLKSGTASVVCLLNNFYPREAKVQWKVDNALQSGNSQESVTEQDSKDSTYSLSSTLTLSKADYEKHKVYACEVTHQGLSSPVTKSFNRGEC | 0.263 nM | 0.000427 s⁻¹
3 | FS17-33-161AA/HELD1.3 (bispecific antibody) chain 1: QVQLQESGPGLVRPSQTLSLTCTVSGSTFSGYGVNWVRQPPGRGLEWIGMIWGDGNTDYNSALKSRVTMLVDTSKNQFSLRLSSVTAADTAVYYCARERDYRLDYWGQGSLVTVSSASTKGPSVFPLAPSSKSTSGGTAALGCLVKDYFPEPVTVSWNSGALTSGVHTFPAVLQSSGLYSLSSVVTVPSSSLGTQTYICNVNHKPSNTKVDKKVEPKSCDKTHTCPPCPAPEAAGGPSVFLFPPKPKDTLMISRTPEVTCVVVDVSHEDPEVKFNWYVDGVEVHNAKTKPREEQYNSTYRVVSVLTVLHQDWLNGKEYKCKVSNKALPAPIEKTISKAKGQPREPQVYTLPPSRDELGYWVSLTCLVKGFYPSDIAVEWESNGEPQYWAKTTPPVLDSDGSFFLYSKLTVSNWRWQLDDFSCSVMHEALHNHYTQKSLSLSPGK chain 2: DIQMTQSPASLSASVGETVTITCRASGNIHNYLAWYQQKQGKSPQLLVYNAKTLADGVPSRFSGSGSGTQYSLKINSLQPEDFGSYYCQHFWSTPRTFGGGTKLEIKRTVAAPSVFIFPPSDEQLKSGTASVVCLLNNFYPREAKVQWKVDNALQSGNSQESVTEQDSKDSTYSLSSTLTLSKADYEKHKVYACEVTHQGLSSPVTKSFNRGEC | 0.453 nM | 0.000578 s⁻¹
4 | FS17-33-235AA/HELD1.3 (bispecific antibody) chain 1: QVQLQESGPGLVRPSQTLSLTCTVSGSTFSGYGVNWVRQPPGRGLEWIGMIWGDGNTDYNSALKSRVTMLVDTSKNQFSLRLSSVTAADTAVYYCARERDYRLDYWGQGSLVTVSSASTKGPSVFPLAPSSKSTSGGTAALGCLVKDYFPEPVTVSWNSGALTSGVHTFPAVLQSSGLYSLSSVVTVPSSSLGTQTYICNVNHKPSNTKVDKKVEPKSCDKTHTCPPCPAPEAAGGPSVFLFPPKPKDTLMISRTPEVTCVVVDVSHEDPEVKFNWYVDGVEVHNAKTKPREEQYNSTYRVVSVLTVLHQDWLNGKEYKCKVSNKALPAPIEKTISKAKGQPREPQVYTLPPSRDESGYWVSLTCLVKGFYPSDIAVEWESNGEPQYWAKTTPPVLDSDGSFFLYSKLTVSAWRWQLDDFSCSVMHEALHNHYTQKSLSLSPGK chain 2: DIQMTQSPASLSASVGETVTITCRASGNIHNYLAWYQQKQGKSPQLLVYNAKTLADGVPSRFSGSGSGTQYSLKINSLQPEDFGSYYCQHFWSTPRTFGGGTKLEIKRTVAAPSVFIFPPSDEQLKSGTASVVCLLNNFYPREAKVQWKVDNALQSGNSQESVTEQDSKDSTYSLSSTLTLSKADYEKHKVYACEVTHQGLSSPVTKSFNRGEC | 0.561 nM | 0.000709 s⁻¹
5 | FS17-33-166AA/HELD1.3 (bispecific antibody) chain 1: QVQLQESGPGLVRPSQTLSLTCTVSGSTFSGYGVNWVRQPPGRGLEWIGMIWGDGNTDYNSALKSRVTMLVDTSKNQFSLRLSSVTAADTAVYYCARERDYRLDYWGQGSLVTVSSASTKGPSVFPLAPSSKSTSGGTAALGCLVKDYFPEPVTVSWNSGALTSGVHTFPAVLQSSGLYSLSSVVTVPSSSLGTQTYICNVNHKPSNTKVDKKVEPKSCDKTHTCPPCPAPEAAGGPSVFLFPPKPKDTLMISRTPEVTCVVVDVSHEDPEVKFNWYVDGVEVHNAKTKPREEQYNSTYRVVSVLTVLHQDWLNGKEYKCKVSNKALPAPIEKTISKAKGQPREPQVYTLPPSRDEYGYWVSLTCLVKGFYPSDIAVEWESNGEPQYWAKTTPPVLDSDGSFFLYSKLTVSNWRWQLDDFSCSVMHEALHNHYTQKSLSLSPGK chain 2: DIQMTQSPASLSASVGETVTITCRASGNIHNYLAWYQQKQGKSPQLLVYNAKTLADGVPSRFSGSGSGTQYSLKINSLQPEDFGSYYCQHFWSTPRTFGGGTKLEIKRTVAAPSVFIFPPSDEQLKSGTASVVCLLNNFYPREAKVQWKVDNALQSGNSQESVTEQDSKDSTYSLSSTLTLSKADYEKHKVYACEVTHQGLSSPVTKSFNRGEC | 0.238 nM | 0.000523 s⁻¹
6 | FS17-33-163AA/HELD1.3 (bispecific antibody) chain 1: QVQLQESGPGLVRPSQTLSLTCTVSGSTFSGYGVNWVRQPPGRGLEWIGMIWGDGNTDYNSALKSRVTMLVDTSKNQFSLRLSSVTAADTAVYYCARERDYRLDYWGQGSLVTVSSASTKGPSVFPLAPSSKSTSGGTAALGCLVKDYFPEPVTVSWNSGALTSGVHTFPAVLQSSGLYSLSSVVTVPSSSLGTQTYICNVNHKPSNTKVDKKVEPKSCDKTHTCPPCPAPEAAGGPSVFLFPPKPKDTLMISRTPEVTCVVVDVSHEDPEVKFNWYVDGVEVHNAKTKPREEQYNSTYRVVSVLTVLHQDWLNGKEYKCKVSNKALPAPIEKTISKAKGQPREPQVYTLPPSRDEFGYWVSLTCLVKGFYPSDIAVEWESNGEPQYWAKTTPPVLDSDGSFFLYSKLTVSNWRWQLDDFSCSVMHEALHNHYTQKSLSLSPGK chain 2: DIQMTQSPASLSASVGETVTITCRASGNIHNYLAWYQQKQGKSPQLLVYNAKTLADGVPSRFSGSGSGTQYSLKINSLQPEDFGSYYCQHFWSTPRTFGGGTKLEIKRTVAAPSVFIFPPSDEQLKSGTASVVCLLNNFYPREAKVQWKVDNALQSGNSQESVTEQDSKDSTYSLSSTLTLSKADYEKHKVYACEVTHQGLSSPVTKSFNRGEC | 0.37 nM | 0.000372 s⁻¹

Reference: patent US20230406935A1 (F STAR THERAPEUTICS, published 2023)
